Test results from the supplement of paper PMC10567573.

B1: CCDC6 (parent)
chain: TLFKKIQALQKEKETLAVNYEKEE

Variants of: B1
Test: protein stability index of a GFP-peptide fusion (GPS, HEK-293T) (PSI 1-6); higher = more stable
Conditions: c terminus: a fixed tail appended
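Note: lentivirally expressed fusions sorted by FACS into six bins by GFP to DsRed ratio, PSI derived from sequencing read proportions per bin multiplied by bin number.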

Protein stability index of substitutions, site by site:
T15: A 2.97 | M 2.85 | S 2.91 | W 1.92 | G 3.25 | K 3.3 | V 3.42 | R 2.88 | H 2.76 | Y 3.08 | P 3.56 | N 3.23 | L 2.54
E21: A 2.26 | I 1.97 | S 3.06 | T 2.84 | C 2.53 | F 1.62 | Y 1.78 | R 2.36 | Q 3.1 | L 2.28 | M 2.11 | K 2.58 | V 2.52 | H 2.84 | P 2.72 | D 3.2
K22: W 2.48 | R 2.94 | L 2.89 | Q 3.3 | G 3.39 | Y 2.64 | N 3.12 | A 3.27 | T 2.68 | E 3.72 | F 2.57
L2: N 5.26 | G 5.25 | C 4.55 | V 3.82 | D 5.26 | Q 4.91 | T 5.1 | M 4.28 | R 5.13 | H 4.96 | Y 3.74 | W 3.68 | F 4.25 | E 5.56 | K 5.2
K11: N 3.55 | D 3.79 | Y 2.66 | V 2.81 | T 2.89 | Q 3.21 | C 3.12 | M 2.78 | F 2.94 | L 3.05 | P 4.1 | A 3.23 | S 3.36 | G 3.71 | H 3.28 | W 2.28 | R 2.59
K4: G 3.75 | N 3.68 | W 2.74 | F 3.44 | P 4.83 | Q 3.56 | Y 2.58 | H 3.88 | I 2.76 | M 2.8 | V 3.52 | A 3.01 | S 3.82
L9: S 4.05 | K 4.35 | P 5.08 | F 3.46 | V 4.22 | M 2.74 | H 3.88 | Y 3.23 | T 4.6 | C 4.33 | A 3.92 | D 4.67 | N 4.55
I6: C 4.44 | T 4.75 | P 4.78 | N 4.36 | G 5.06 | D 5.34 | F 3.99 | S 4.81 | V 3.85 | H 4.17 | K 4.92 | E 5.39
F3: I 3.51 | D 5.28 | T 5.1 | C 3.62 | E 5.42 | G 5.23 | H 4.9 | K 4.78 | R 4.38 | V 3.76 | A 4.68 | S 4.62 | L 3.08 | W 2.26 | P 5.44
E12: L 1.97 | F 1.85 | R 2.75 | V 2.52 | P 3.66 | D 3.37 | T 2.62 | G 3.05 | Y 2.11 | M 2.49 | W 1.81 | K 2.59 | H 2.63 | S 2.63
E14: V 2.6 | F 2.16 | T 2.55 | K 2.94 | Y 2.05 | H 2.58 | C 2.89 | G 3.1 | I 2.25 | Q 3.11 | A 2.6 | L 1.97 | M 2.27 | N 3.15 | R 2.6
Q10: H 3.3 | C 3.17 | F 2.2 | T 3.79 | P 3.99 | A 3.17 | K 3.08 | M 2.42 | N 2.89 | L 2.45 | Y 2.64 | V 2.91 | I 2.35
